Results: US20150291692A1

Assays:
[1] = target: NK cells, including normal KIR3DL2+ NK cells (Homo sapiens) (UniProt P43630); experiment: flow cytometry of whole blood of a Sezary Syndrome patient, antibody + GaM-PE against CD4; lower gate (CD4-negative NK cells)
[2] = target: KIR3DL2 on fresh Sezary Syndrome cells of patients (human) (UniProt P43630); experiment: flow cytometry of whole blood of a Sezary Syndrome patient, antibody + GaM-PE against CD4; upper gate (CD4+ cells)
Sequence of KIR3DL2 on fresh Sezary Syndrome cells of patients (human) (P43630 22-455): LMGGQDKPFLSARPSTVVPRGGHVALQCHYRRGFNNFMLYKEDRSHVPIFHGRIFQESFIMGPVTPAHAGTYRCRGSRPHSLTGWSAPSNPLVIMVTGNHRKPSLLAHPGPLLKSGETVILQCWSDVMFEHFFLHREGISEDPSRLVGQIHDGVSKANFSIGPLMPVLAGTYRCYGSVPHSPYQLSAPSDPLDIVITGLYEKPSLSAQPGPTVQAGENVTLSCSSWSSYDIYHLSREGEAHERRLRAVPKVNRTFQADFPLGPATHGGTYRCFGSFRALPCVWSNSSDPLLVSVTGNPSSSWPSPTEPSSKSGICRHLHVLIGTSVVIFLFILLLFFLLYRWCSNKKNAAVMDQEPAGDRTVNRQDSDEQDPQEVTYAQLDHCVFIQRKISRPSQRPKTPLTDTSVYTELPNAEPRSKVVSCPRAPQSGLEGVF

Sequence of NK cells, including normal KIR3DL2+ NK cells (Homo sapiens) (P43630 22-455 limits assumed): as the sequence (P43630 22-455) above

Question: With Isotype Control (antibody) as the substance, how does the % of cells in gate NK GaM PE+ [1] read?
Answer: 0.9%

Question: What about the % of cells in gate CD4 GaM PE+ [2] of the same substance?
Answer: 0.1%
